Data from IntAct's records for PubMed 19013157.

B1: Trimethylamine-N-oxide reductase 1 (Escherichia coli (strain K12)), P33225 (parent)
chain: MNNNDLFQASRRRFLAQLGGLTVAGMLGPSLLTPRRATAAQAATDAVISKEGILTGSHWGAIRATVKDGRFVAAKPFELDKYPSKMIAGLPDHVHNAARIRYPMVRVDWLRKRHLSDTSQRGDNRFVRVSWDEALDMFYEELERVQKTHGPSALLTASGWQSTGMFHNASGMLAKAIALHGNSVGTGGDYSTGAAQVILPRVVGSMEVYEQQTSWPLVLQNSKTIVLWGSDLLKNQQANWWCPDHDVYEYYAQLKAKVAAGEIEVISIDPVVTSTHEYLGREHVKHIAVNPQTDVPLQLALAHTLYSENLYDKNFLANYCVGFEQFLPYLLGEKDGQPKDAAWAEKLTGIDAETIRGLARQMAANRTQIIAGWCVQRMQHGEQWAWMIVVLAAMLGQIGLPGGGFGFGWHYNGAGTPGRKGVILSGFSGSTSIPPVHDNSDYKGYSSTIPIARFIDAILEPGKVINWNGKSVKLPPLKMCIFAGTNPFHRHQQINRIIEGLRKLETVIAIDNQWTSTCRFADIVLPATTQFERNDLDQYGNHSNRGIIAMKQVVPPQFEARNDFDIFRELCRRFNREEAFTEGLDEMGWLKRIWQEGVQQGKGRGVHLPAFDDFWNNKEYVEFDHPQMFVRHQAFREDPDLEPLGTPSGLIEIYSKTIADMNYDDCQGHPMWFEKIERSHGGPGSQKYPLHLQSVHPDFRLHSQLCESETLRQQYTVAGKEPVFINPQDASARGIRNGDVVRVFNARGQVLAGAVVSDRYAPGVARIHEGAWYDPDKGGEPGALCKYGNPNVLTIDIGTSQLAQATSAHTTLVEIEKYNGTVEQVTAFNGPVEMVAQCEYVPASQVKS
partner: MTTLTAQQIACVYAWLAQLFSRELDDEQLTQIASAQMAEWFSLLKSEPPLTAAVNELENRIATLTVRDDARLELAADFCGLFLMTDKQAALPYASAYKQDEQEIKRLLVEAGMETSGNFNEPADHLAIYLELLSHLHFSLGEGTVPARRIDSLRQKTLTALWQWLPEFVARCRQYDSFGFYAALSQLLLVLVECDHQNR
B2: Chaperone protein TorD (Escherichia coli (strain K12)), P36662 (parent)
chain: B1 partner

Variants of: B1
Conditions: with tord_ecoli torD
For L32Q, the “effect of a mutation on the interaction” value was “disrupting interaction”.

Variants of: B1
Conditions: with tord_ecoli torD
Remark: another data set of the same source
In the case of L27Q, the “effect of a mutation on the interaction” value is reported as “disrupting interaction”.

Variants of: B1
Conditions: with tord_ecoli torD
Remark: another data set of the same source
L31Q was tested, and the “effect of a mutation on the interaction” value was “disrupting interaction”.

Variants of: B1
Conditions: with tord_ecoli torD
Remark: another data set of the same source
With L31Q the “effect of a mutation on the interaction” value was “decreasing interaction”.

Variants of: B1
Conditions: with tord_ecoli torD
Remark: another data set of the same source
With G28Q the “effect of a mutation on the interaction” value was “decreasing interaction”.

Variants of: B1
Conditions: with tord_ecoli torD
Remark: another data set of the same source
With T22Q the “effect of a mutation on the interaction” value was “increasing interaction”.

Variants of: B1
Conditions: with tord_ecoli torD
Remark: another data set of the same source
With G19Q the “effect of a mutation on the interaction” value was “decreasing interaction”.

Variants of: B1
Conditions: with tord_ecoli torD
Remark: another data set of the same source
In the case of V23Q, the “effect of a mutation on the interaction” value is reported as “decreasing interaction”.

Variants of: B2
Conditions: with tora_ecoli torA
For MTTLTAQQIACVYAWLAQLFSRELDDEQLTQIASAQMAEWFSLLKSEPPLTAAVNELENRIATLTVRDDARLELAADFCGLFLMTDKQAALPYASAYKQDEQEIKRLLVEAGMETSGNFNEPADHLAIYLELLSHLHFSLGEGTVPARRIDSLRQKTLTALWQWLPEFVARCRQYDSFGFYAALSLLLLVLVECDHQNR [Q186L], the “effect of a mutation on the interaction” value was “increasing interaction”.

Variants of: B2
Conditions: with tora_ecoli torA
Remark: another data set of the same source
With MTTLTAQQIACVYAWLAQLFSRELDDEQLTQIASAQMAEWFSLLKSEPPLTAAVNELENRIATLTVRDDARLELAADFCGLFLMTDKQAALPYASAYKQDEQEIKRLLVEAGMETSGNFNEPADHLAIYLELLSHLHFSLGEGTVPARRIDSLRQKTLTALWQWLPEFVARCRQYDSFGLYAALSQLLLVLVECDHQNR [F180L] the “effect of a mutation on the interaction” value was “increasing interaction”.
For MTTLTAQQIACVYAWLAQLFSRELDDEQLTQIASAQMAEWFSLLKSEPPLTAAVNELENRIATLTVRDDARLELAADFCGLFLMTDKQAALPYASAYKQDEQEIKRLLVEAGMETSGNFNEPADHLAIYLELLSHLHFSLGEGTVPARRIDSLRQKTLTALWQWLPEFVARCRQYDSFGFYAALSQLLQVLVECDHQNR [L189Q], the “effect of a mutation on the interaction” value was “increasing interaction”.
For MTTLTALQIACVYAWLAQLFSRELDDEQLTQIASAQMAEWFSLLKSEPPLTAAVNELENRIATLTVRDDARLELAADFCGLFLMTDKQAALPYASAYKQDEQEIKRLLVEAGMETSGNFNEPADHLAIYLELLSHLHFSLGEGTVPARRIDSLRQKTLTALWQWLPEFVARCRQYDSFGFYAALSQLLLVLVECDHQNR [Q7L], the “effect of a mutation on the interaction” value was “increasing interaction”.

Variants of: B2
Conditions: with tora_ecoli torA
Remark: another data set of the same source
With MTTLTAQQIACVYAWLAQLFSRELDDEQLTQIASAQMAEWFSLLKSEPPLTAAVNELENRIATLTVRDDARLELAADFCGLFLMTDKQAALPYASAYKQDEQEIKRLLVEAGMETSGNFNEPADHLAIYLELLSHLHFSLGEGTVPARRIDSLRQKTLTALWQWLPEFVARCRQYDSFGLYAALSQLLLVLVECDHQNR [F180L] the “effect of a mutation on the interaction” value was “decreasing interaction”.

Variants of: B2
Conditions: with tora_ecoli torA
Remark: another data set of the same source
For MTTLTAQQIACVYAWLAQLFSRELDDEQLTQIASAQMAEWFSLLKSEPPLTAAVNELENRIATLTVRDDARLELAADFCGLFLMTDKQAALPYASAYKQDEQEIKRLLVEAGMETSGNFNEPADHLAIYLELLSHLHFSLGEGTVPARRIDSLRQKTLTALWQWLPEFVARCRQYDSFGFYAALSQLLQVLVECDHQNR [L189Q], the “effect of a mutation on the interaction” value was “decreasing interaction”.
